The supplement of paper PMC5998384

Experiments:
HeLa Kyoto [1] = assay: solubility in G1/S (NP-40 vs SDS abundance) (log2 ratio); higher = more soluble; settings: cell cycle stage: G1/S
HeLa Kyoto [2] = assay: solubility change mitosis vs G1/S (difference of NP-40 vs SDS log2 ratios) (log2 ratio difference); higher = more soluble in mitosis
HeLa Kyoto [3] = assay: thermal stability score vs G1/S (z-score of summed log2 fold changes over temperatures); higher = more thermally stable than in G1/S
HeLa Kyoto [4] = assay: melting temperature (median over replicates), in situ; higher = more thermally stable
[5] = cell cycle stage: early G1 (4.5 h after nocodazole release)
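Wherever melting temperature (median over replicates), in situ is given: HeLa Kyoto cells synchronized by double thymidine or nocodazole block, proteins quantified by TMT10plex mass spectrometry, three independent biological replicates.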
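Wherever solubility change mitosis vs G1/S (difference of NP-40 vs SDS log2 ratios) is given: synchronized HeLa Kyoto cells (double thymidine block for G1/S, nocodazole release for mitosis), protein amounts in NP-40 versus SDS lysates quantified by mass spectrometry, three biological replicates.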
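Wherever solubility in G1/S (NP-40 vs SDS abundance) is given: HeLa Kyoto cells arrested at G1/S by double thymidine block, proteins quantified by TMT10plex mass spectrometry in mild NP-40 versus SDS extracts, three biological replicates.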
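Wherever thermal stability score vs G1/S (z-score of summed log2 fold changes over temperatures) is given: synchronized HeLa Kyoto cells, proteins quantified by TMT10plex mass spectrometry, three biological replicates, mitosis taken 0.5 h after nocodazole release, G1/S directly after double thymidine block.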

Substance | solubility in G1/S (log2) (HeLa Kyoto [1]) | solubility change mitosis (log2) (HeLa Kyoto [2]) | thermal stability score (HeLa Kyoto [3]; [5]) | thermal stability score (HeLa Kyoto [3]; cell cycle stage: mitosis) | melting temperature (HeLa Kyoto [4]; cell cycle stage: G1/S) | melting temperature (HeLa Kyoto [4]; cell cycle stage: mitosis)
MAGGGGDLSTRRLNECISPVANEMNHLPAHSHDLQRMFTEDQGVDDRLLYDIVFKHFKRNKVEISNAIKKTFPFLEGLRDRDLITNKMFEDSQDSCRNLVPVQRVVYNVLSELEKTFNLPVLEALFSDVNMQEYPDLIHIYKGFENVIHDKLPLQESEEEEREERSGLQLSLEQGTGENSFRSLTWPPSGSPSHAGTTPPENGLSEHPCETEQINAKRKDTTSDKDDSLGSQQTNEQCAQKAEPTESCEQIAVQVNNGDAGREMPCPLPCDEESPEAELHNHGIQINSCSVRLVDIKKEKPFSNSKVECQAQARTHHNQASDIIVISSEDSEGSTDVDEPLEVFISAPRSEPVINNDNPLESNDEKEGQEATCSRPQIVPEPMDFRKLSTFRESFKKRVIGQDHDFSESSEEEAPAEASSGALRSKHGEKAPMTSRSTSTWRIPSRKRRFSSSDFSDLSNGEELQETCSSSLRRGSGSQPQEPENKKCSCVMCFPKGVPRSQEARTESSQASDMMDTMDVENNSTLEKHSGKRRKKRRHRSKVNGLQRGRKKDRPRKHLTLNNKVQKKRWQQRGRKANTRPLKRRRKRGPRIPKDENINFKQSELPVTCGEVKGTLYKERFKQGTSKKCIQSEDKKWFTPREFEIEGDRGASKNWKLSIRCGGYTLKVLMENKFLPEPPSTRKKRILESHNNTLVDPCEEHKKKNPDASVKFSEFLKKCSETWKTIFAKEKGKFEDMAKADKAHYEREMKTYIPPKGEKKKKFKDPNAPKRPPLAFFLFCSEYRPKIKGEHPGLSIDDVVKKLAGMWNNTAAADKQFYEKKAAKLKEKYKKDIAAYRAKGKPNSAKKRVVKAEKSKKKKEEEEDEEDEQEEENEEDDDK [SP100] | 0.0834 | 0.113 | -2.83 | -2.43 | 51.9 °C | 51.9 °C
MKMAAPTANKAASLGCNNKPAFPELDFRSGARVEELNKLIQEFTKHDQREYDDQRALEIHTAKDFIFSMLGMVQKLDQKLPVANEYLLLSGGVREGVVDLDLDELNVYARGTDYDMDFTLLVPALKLHDRNQPVTLDMRHSALCHSWLSLRLFDEGTISKWKDCCTIVDHINGATNYFFSPTKVADWFYDSISIVLSEIQKKPQRGMPKVEKVEKNGTIISIILGVGSSRMLYDIVPVVSFKGWPAVAQSWLMENHFWDGKITEEEVISGFYLVPACSYKGKKDNEWRLSFARSEVQLKKCISSSLMQAYQACKAIIIKLLSRPKAISPYHLRSMMLWACDRLPANYLAQEDYAAHFLLGLIDDLQHCLVNKMCPNYFIPQCNMLEHLSEETVMLHARKLSSVRSDPAEHLRTAIEHVKAANRLTLELQRRGSTTSIPSPQSDGGDPNQPDDRLAKKLQQLVTENPGKSISVFINPDDVTRPHFRIDDKFF [MB21D2] | 0.0815 | -0.0032 | 1.1 | -0.608 | 56.3 °C | 56.5 °C
GCHFR | 0.27 | 0.498 | -1.12 | -0.945 | 55 °C | 59.7 °C
MPSATSHSGSGSKSSGPPPPSGSSGSEAAAGAGAAAPASQHPATGTGAVQTEAMKQILGVIDKKLRNLEKKKGKLDDYQERMNKGERLNQDQLDAVSKYQEVTNNLEFAKELQRSFMALSQDIQKTIKKTARREQLMREEAEQKRLKTVLELQYVLDKLGDDEVRTDLKQGLNGVPILSEEELSLLDEFYKLVDPERDMSLRLNEQYEHASIHLWDLLEGKEKPVCGTTYKVLKEIVERVFQSNYFDSTHNHQNGLCEEEEAASAPAVEDQVPEAEPEPAEEYTEQSEVESTEYVNRQFMAETQFTSGEKEQVDEWTVETVEVVNSLQQQPQAASPSVPEPHSLTPVAQADPLVRRQRVQDLMAQMQGPYNFIQDSMLDFENQTLDPAIVSAQPMNPTQNMDMPQLVCPPVHSESRLAQPNQVPVQPEATQVPLVSSTSEGYTASQPLYQPSHATEQRPQKEPIDQIQATISLNTDQTTASSSLPAASQPQVFQAGTSKPLHSSGINVNAAPFQSMQTVFNMNAPVPPVNEPETLKQQNQYQASYNQSFSSQPHQVEQTELQQEQLQTVVGTYHGSPDQSHQVTGNHQQPPQQNTGFPRSNQPYYNSRGVSRGGSRGARGLMNGYRGPANGFRGGYDGYRPSFSNTPNSGYTQSQFSAPRDYSGYQRDGYQQNFKRGSGQSGPRGAPRGRGGPPRPNRGMPQMNTQQVN [CAPRIN1] | -0.0442 | 0.14 | -0.0976 | -1.01 | 54.8 °C | 54.9 °C
MKLYSLSVLYKGEAKVVLLKAAYDVSSFSFFQRSSVQEFMTFTSQLIVERSSKGTRASVKEQDYLCHVYVRNDSLAGVVIADNEYPSRVAFTLLEKVLDEFSKQVDRIDWPVGSPATIHYPALDGHLSRYQNPREADPMTKVQAELDETKIILHNTMESLLERGEKLDDLVSKSEVLGTQSKAFYKTARKQNSCCAIM [YKT6] | -0.0827 | -0.0935 | 0.334 | -0.9 | 54.5 °C | 54.6 °C
MSDFDEFERQLNENKQERDKENRHRKRSHSRSRSRDRKRRSRSRDRRNRDQRSASRDRRRRSKPLTRGAKEEHGGLIRSPRHEKKKKVRKYWDVPPPGFEHITPMQYKAMQAAGQIPATALLPTMTPDGLAVTPTPVPVVGSQMTRQARRLYVGNIPFGITEEAMMDFFNAQMRLGGLTQAPGNPVLAVQINQDKNFAFLEFRSVDETTQAMAFDGIIFQGQSLKIRRPHDYQPLPGMSENPSVYVPGVVSTVVPDSAHKLFIGGLPNYLNDDQVKELLTSFGPLKAFNLVKDSATGLSKGYAFCEYVDINVTDQAIAGLNGMQLGDKKLLVQRASVGAKNATLVSPPSTINQTPVTLQVPGLMSSQVQMGGHPTEVLCLMNMVLPEELLDDEEYEEIVEDVRDECSKYGLVKSIEIPRPVDGVEVPGCGKIFVEFTSVFDCQKAMQGLTGRKFANRVVVTKYCDPDSYHRRDFW [U2AF2] | -0.395 | 0.177 | 1.65 | 5.33 | 49.7 °C | 50.5 °C
MAPKKRPETQKTSEIVLRPRNKRSRSPLELEPEAKKLCAKGSGPSRRCDSDCLWVGLAGPQILPPCRSIVRTLHQHKLGRASWPSVQQGLQQSFLHTLDSYRILQKAAPFDRRATSLAWHPTHPSTVAVGSKGGDIMLWNFGIKDKPTFIKGIGAGGSITGLKFNPLNTNQFYASSMEGTTRLQDFKGNILRVFASSDTINIWFCSLDVSASSRMVVTGDNVGNVILLNMDGKELWNLRMHKKKVTHVALNPCCDWFLATASVDQTVKIWDLRQVRGKASFLYSLPHRHPVNAACFSPDGARLLTTDQKSEIRVYSASQWDCPLGLIPHPHRHFQHLTPIKAAWHPRYNLIVVGRYPDPNFKSCTPYELRTIDVFDGNSGKMMCQLYDPESSGISSLNEFNPMGDTLASAMGYHILIWSQEEARTRK [DDB2] | -0.0537 | -0.078 | -1.8 | -2.6 | 55.7 °C | 56.7 °C
MSRYLRPPNTSLFVRNVADDTRSEDLRREFGRYGPIVDVYVPLDFYTRRPRGFAYVQFEDVRDAEDALHNLDRKWICGRQIEIQFAQGDRKTPNQMKAKEGRNVYSSSRYDDYDRYRRSRSRSYERRRSRSRSFDYNYRRSYSPRNSRPTGRPRRSRSHSDNDRFKHRNRSFSRSKSNSRSRSKSQPKKEMKAKSRSRSASHTKTRGTSKTDSKTHYKSGSRYEKESRKKEPPRSKSQSRSQSRSRSKSRSRSWTSPKSSGH [SRSF10] | -0.696 | 0.534 | 0.817 | -0.653 | 49.7 °C | 50.2 °C
MSVGFIGAGQLAYALARGFTAAGILSAHKIIASSPEMNLPTVSALRKMGVNLTRSNKETVKHSDVLFLAVKPHIIPFILDEIGADVQARHIVVSCAAGVTISSVEKKLMAFQPAPKVIRCMTNTPVVVQEGATVYATGTHALVEDGQLLEQLMSSVGFCTEVEEDLIDAVTGLSGSGPAYAFMALDALADGGVKMGLPRRLAIQLGAQALLGAAKMLLDSEQHPCQLKDNVCSPGGATIHALHFLESGGFRSLLINAVEASCIRTRELQSMADQEKISPAALKKTLLDRVKLESPTVSTLTPSSPGKLLTRSLALGGKKD [PYCR2] | 0.291 | -0.0672 | 1.32 | -3.51 | 54.9 °C | 54.5 °C
MADFLPSRSVLSVCFPGCLLTSGEAEQQRKSKEIDKCLSREKTYVKRLVKILLLGAGESGKSTFLKQMRIIHGQDFDQRAREEFRPTIYSNVIKGMRVLVDAREKLHIPWGDNSNQQHGDKMMSFDTRAPMAAQGMVETRVFLQYLPAIRALWADSGIQNAYDRRREFQLGESVKYFLDNLDKLGEPDYIPSQQDILLARRPTKGIHEYDFEIKNVPFKMVDVGGQRSERKRWFECFDSVTSILFLVSSSEFDQVLMEDRLTNRLTESLNIFETIVNNRVFSNVSIILFLNKTDLLEEKVQIVSIKDYFLEFEGDPHCLRDVQKFLVECFRNKRRDQQQKPLYHHFTTAINTENIRLVFRDVKDTILHDNLKQLMLQ [GNA13] | -0.176 | -0.27 | 1.07 | 1.56 | 53.7 °C | 53.5 °C
MAASGKLSTCRLPPLPTIREIIKLLRLQAAKQLSQNFLLDLRLTDKIVRKAGNLTNAYVYEVGPGPGGITRSILNADVAELLVVEKDTRFIPGLQMLSDAAPGKLRIVHGDVLTFKVEKAFSESLKRPWEDDPPNVHIIGNLPFSVSTPLIIKWLENISCRDGPFVYGRTQMTLTFQKEVAERLAANTGSKQRSRLSVMAQYLCNVRHIFTIPGQAFVPKPEVDVGVVHFTPLIQPKIEQPFKLVEKVVQNVFQFRRKYCHRGLRMLFPEAQRLESTGRLLELADIDPTLRPRQLSISHFKSLCDVYRKMCDEDPQLFAYNFREELKRRKSKNEEKEEDDAENYRL [TFB1M] | -0.318 | 0.122 | 0.388 | 0.452 | 51.7 °C | 51.4 °C
MSKRHRLDLGEDYPSGKKRAGTDGKDRDRDRDREDRSKDRDRERDRGDREREREKEKEKELRASTNAMLISAGLPPLKASHSAHSTHSAHSTHSTHSAHSTHAGHAGHTSLPQCINPFTNLPHTPRYYDILKKRLQLPVWEYKDRFTDILVRHQSFVLVGETGSGKTTQIPQWCVEYMRSLPGPKRGVACTQPRRVAAMSVAQRVADEMDVMLGQEVGYSIRFEDCSSAKTILKYMTDGMLLREAMNDPLLERYGVIILDEAHERTLATDILMGVLKEVVRQRSDLKVIVMSATLDAGKFQIYFDNCPLLTIPGRTHPVEIFYTPEPERDYLEAAIRTVIQIHMCEEEEGDLLLFLTGQEEIDEACKRIKREVDDLGPEVGDIKIIPLYSTLPPQQQQRIFEPPPPKKQNGAIGRKVVVSTNIAETSLTIDGVVFVIDPGFAKQKVYNPRIRVESLLVTAISKASAQQRAGRAGRTRPGKCFRLYTEKAYKTEMQDNTYPEILRSNLGSVVLQLKKLGIDDLVHFDFMDPPAPETLMRALELLNYLAALNDDGDLTELGSMMAEFPLDPQLAKMVIASCDYNCSNEVLSITAMLSVPQCFVRPTEAKKAADEAKMRFAHIDGDHLTLLNVYHAFKQNHESVQWCYDNFINYRSLMSADNVRQQLSRIMDRFNLPRRSTDFTSRDYYINIRKALVTGYFMQVAHLERTGHYLTVKDNQVVQLHPSTVLDHKPEWVLYNEFVLTTKNYIRTCTDIKPEWLVKIAPQYYDMSNFPQCEAKRQLDRIIAKLQSKEYSQY [DHX15] | -0.42 | 0.272 | 0.104 | 1.61 | 53.9 °C | 53.7 °C
NF1 | -0.315 | -0.137 | -0.998 | -0.184 | 49.7 °C | 50.4 °C
